Results: patent US20100285597

Key:
[1] = molecular target: T1, T310A point mutant of nectin-1
T1 chain: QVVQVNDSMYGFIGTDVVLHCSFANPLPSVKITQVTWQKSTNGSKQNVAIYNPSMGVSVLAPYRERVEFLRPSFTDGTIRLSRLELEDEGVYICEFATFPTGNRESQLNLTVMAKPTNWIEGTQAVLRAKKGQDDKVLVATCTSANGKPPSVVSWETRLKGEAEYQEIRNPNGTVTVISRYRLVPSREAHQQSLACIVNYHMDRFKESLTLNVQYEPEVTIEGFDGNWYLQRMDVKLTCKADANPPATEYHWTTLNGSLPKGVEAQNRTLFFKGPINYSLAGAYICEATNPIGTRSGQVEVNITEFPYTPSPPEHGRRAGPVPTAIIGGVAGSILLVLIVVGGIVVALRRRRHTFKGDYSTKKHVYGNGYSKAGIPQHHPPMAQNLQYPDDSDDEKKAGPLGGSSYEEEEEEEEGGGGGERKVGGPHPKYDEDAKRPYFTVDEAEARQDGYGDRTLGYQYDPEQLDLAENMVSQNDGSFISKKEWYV

[2] = molecular target: T2, Y311A point mutant of nectin-1
T2 chain: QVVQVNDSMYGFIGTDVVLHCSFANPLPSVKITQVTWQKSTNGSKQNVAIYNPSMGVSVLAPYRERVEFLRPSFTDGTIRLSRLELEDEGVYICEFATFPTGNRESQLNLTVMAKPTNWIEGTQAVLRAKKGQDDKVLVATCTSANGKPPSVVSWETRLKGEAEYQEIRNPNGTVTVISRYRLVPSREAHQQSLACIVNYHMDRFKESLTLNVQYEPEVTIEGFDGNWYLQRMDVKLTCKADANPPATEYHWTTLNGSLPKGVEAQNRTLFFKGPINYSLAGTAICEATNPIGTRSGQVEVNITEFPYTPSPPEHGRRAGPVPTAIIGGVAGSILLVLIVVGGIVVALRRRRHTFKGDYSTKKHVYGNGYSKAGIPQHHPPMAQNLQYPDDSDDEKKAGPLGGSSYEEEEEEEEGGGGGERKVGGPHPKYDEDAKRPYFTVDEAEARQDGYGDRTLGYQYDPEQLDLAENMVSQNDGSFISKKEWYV

[3] = molecular target: T3, S323A point mutant of nectin-1
T3 chain: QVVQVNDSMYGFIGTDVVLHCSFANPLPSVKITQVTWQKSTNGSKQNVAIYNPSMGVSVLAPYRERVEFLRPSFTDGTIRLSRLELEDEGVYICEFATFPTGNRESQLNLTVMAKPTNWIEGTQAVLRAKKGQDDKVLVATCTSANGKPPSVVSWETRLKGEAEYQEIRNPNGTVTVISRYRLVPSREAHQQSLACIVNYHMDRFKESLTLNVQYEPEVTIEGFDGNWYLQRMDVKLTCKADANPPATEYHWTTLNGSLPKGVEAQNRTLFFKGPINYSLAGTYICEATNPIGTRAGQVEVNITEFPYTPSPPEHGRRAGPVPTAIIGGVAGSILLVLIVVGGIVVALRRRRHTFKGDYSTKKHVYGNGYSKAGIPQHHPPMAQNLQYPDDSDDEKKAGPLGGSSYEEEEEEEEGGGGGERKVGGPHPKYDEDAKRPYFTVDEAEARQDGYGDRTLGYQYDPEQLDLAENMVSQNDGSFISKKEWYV

B1: BACE1 (protein)
chain: ETDEEPEEPGRRGSFVEMVDNLRGKSGQGYYVEMTVGSPPQTLNILVDTGSSNFAVGAAPHPFLHRYYQRQLSSTYRDLRKGVYVPYTQGKWEGELGTDLVSIPHGPNVTVRANIAAITESDKFFINGSNWEGILGLAYAEIARPDDSLEPFFDSLVKQTHVPNLFSLQLCGAGFPLNQSEVLASVGGSMIIGGIDHSLYTGSLWYTPIRREWYYEVIIVRVEINGQDLKMDCKEYNYDKSIVDSGTTNLRLPKKVFEAAVKSIKAASSTEKFPDGFWLGEQLVCWQAGTTPWNIFPVISLYLMGEVTNQSFRITILPQQYLRPVEDVATSQDDCYKFAISQSSTGTVMGAVIMEGFYVVFDRARKRIGFAVSACHVHDEFRTAAVEGPFVTLDMEDCGYNIPQTDESTLMTIAYVMAAICALFMLPLCLMVCQWRCLRCLRQQHDDFADDISLLK
For B1, the “production of CTF bands (Western blot of HEK 293 lysates)” value (“production of CTF bands” below) [1] was “somewhat less effectively increased production in the other two mutants, T310A and Y311A”, the “production of CTF bands” value [2] was “somewhat less effectively increased production in the other two mutants, T310A and Y311A” and the “production of CTF bands” value [3] was “Co-expression with BACE1 substantially increased production of CTF bands for the nectin-1 polypeptide mutant S323A”.
